Laboratory results reported in patent US20220259593A1, “CONTROL OF MAMMALIAN GENE DOSAGE USING CRISPR” (The Regents of the University of California, priority 2019, published 2022).

System: K562 CRISPRi cells
Test: Constant region variant library pooled growth screen, K562
Format: cell-based, human
Conditions: sgRNA constant region variants; activity relative to the original, un-modified constant region cr995
In short: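 Relative activity expresses each targeting sequence:constant region pair's phenotype over that of the unmodified constant region. Pooled growth screen ran in K562 CRISPRi cells in duplicate spinner-flask replicates, with puromycin selection and 4–8 days' growth at >2000× coverage; library paired variants with 36 targeting sequences.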

Molecule	Mean relative activity
cr266 (nucleic acid, listed as DNA, chemistry not fully specified) guide: GTTTAAGAGCTAAGCTGGAAACAGCATGGCAAGGTTAAATAAGGCGAGTCCGTTATCAACTTGAAAAAGTGGCACCGAGTCGGTGCT	0.005552
cr833 (nucleic acid, listed as DNA, chemistry not fully specified) guide: GTTTAAGAGCTAAGCTGGAAACAGCATCGCAACTTTAAATAAGGCTAGTCCGTTATCAACTTGAAAAAGTCGCACCGAGTCGGTGCT	0.004215
cr225 (nucleic acid, listed as DNA, chemistry not fully specified) guide: GTTTAAGAGCTAAGCTGGAAACAGCATAGCAAGTTTAAATAATGCTATTCCGTTATCAACTTGAAAAAGTGGCACCGAGTCGGTGCT	0.002658
cr297 (nucleic acid, listed as DNA, chemistry not fully specified) guide: GTTTAAGAGCTAAGCTGGAAACAGCATAGCAAGTTTAAATAAGGCTAGGCCGTTATCAACTTGAAAAAGTCGCACCGAGTCGGTGCT	0.004872
cr845 (nucleic acid, listed as DNA, chemistry not fully specified) guide: GTTTAAGAGCTAAGCTGGAAACAGCATAGCAAGGTTAAATAAAGCTAGTCTGTTATCAACTTGAAAAAGTGGCACCGAGTCGGTGCT	0.004644
cr482 (nucleic acid, listed as DNA, chemistry not fully specified) guide: GTTTAAGAGCTAAGCTGGAAACAGCATAGCAAGTTTAAATAAGGCTTGTCCCTTATCAACTTGAAAAAGTGGCACCGAGTCGGTGCT	0.003006
cr068 (nucleic acid, listed as DNA, chemistry not fully specified) guide: GTTAGAGAGCTAAGCTGGAAACAGCATAGCAAGTTTAAATAAGGCTAGTCCGTTATCAACTTGAAAAAGTGGCACCGAGTCGGTGCT	0.002959
cr094 (nucleic acid, listed as DNA, chemistry not fully specified) guide: GATTTAGAGCTAAGCTGGAAACAGCATAGCAAGTTTAAATAAGGCTAGTCCGTTATCAACTTGAAAAAGTGGCACCGAGTCGGTGCT	0.004414
cr469 (nucleic acid, listed as DNA, chemistry not fully specified) guide: GTTTAAGAGCTAAGCTGGAAACAGCATAGCAAGTTTAAATAAGGCTAGTCCCTTATCAACTTGAAAAAGTGGCACCGAGTCGGTGCT	0.003211
cr309 (nucleic acid, listed as DNA, chemistry not fully specified) guide: GTTTAAGAGCTAAGCTGGAAACAGCATAGCAAGGTTAAATAAGGCTAGGCCGTTATCAACTTGAAAAAGTGGCACCGAGTCGGTGCT	0.005045
cr572 (nucleic acid, listed as DNA, chemistry not fully specified) guide: GTTTAAGAGCTAAGCTGGAAACAGCATAGCAAGTTTAAATAACCGAACTCGGTTATCAACTTGAAAAAGTGGCACCGAGTCGGTGCT	0.002782
cr857 (nucleic acid, listed as DNA, chemistry not fully specified) guide: GTTTAAGAGCTAAGCTGGAAACAGCATAGCAAGTTTAAATTAGGCTAGTCCGTTATCAACTTGAAAAAGTCGCACCGAGCCGGTGCT	0.004274
cr849 (nucleic acid, listed as DNA, chemistry not fully specified) guide: GTTTAAGAGCTAAGCTGGAAACAGCATAGCAACGTTAAATAAGGCTAGTCCGTTATCAACTTGAAAAAGTGGCACCGAGTCGGTGCT	0.004706
cr245 (nucleic acid, listed as DNA, chemistry not fully specified) guide: GTTTAAGAGCTAAGCTGGAAACAGCATAGCAAGGTTAAATAAGACTAGTTCGTTATCAACTTGAAAAAGTGGCACCGAGTCGGTGCT	0.00372
cr674 (nucleic acid, listed as DNA, chemistry not fully specified) guide: GTTTAAGAGCTAAGCTGGAAACAGCATAGCAAGTTTAAATAACGCTAGTCGGTTATCATCTTGAAAAAGAGGCACCGAGTCGGTGCT	0.00279
cr303 (nucleic acid, listed as DNA, chemistry not fully specified) guide: GTTTAAGAGCTAAGCTGGAAACAGCATAGCAACTTTAAATAAGGCTTGTCCGTTATCAACTTGAAAAAGTTGCACCGAGTCGGTGCT	0.003573
cr536 (nucleic acid, listed as DNA, chemistry not fully specified) guide: GTTTAAGAGCTAAGCTGGAAACAGCATAGCAACTTTAAATAAGGATATTCCGTTATCAACTTGAAAAAGTGGCACCGAGTCGGTGCT	0.003951
cr472 (nucleic acid, listed as DNA, chemistry not fully specified) guide: GTTTAAGAGCTAAGCTGGAAACAGCATAGCAAGGTTAAATAAGGTTAATCCGTTATCAACTTGAAAAAGTGGCACCGAGTCGGTGCT	0.004917
cr537 (nucleic acid, listed as DNA, chemistry not fully specified) guide: GTTTAAGAGCTAAGCTGGAAACAGCATAGCAAGCTTAAATTAGGCTAGTCCGTTATCAACTTGAAAAAGTGGCACCGAGTCGGTGCT	0.005276
cr381 (nucleic acid, listed as DNA, chemistry not fully specified) guide: GTTTAAGAGCTAAGCTGGAAACAGCATAGCAAGTTTAAATTAGGCTCGTCCGTTATCAACTTGACAAAGTGGCACCGAGTCGGTGCT	0.003196
cr049 (nucleic acid, listed as DNA, chemistry not fully specified) guide: GTGTTAGAGCTAAGCTGGAAACAGCATAGCAAGTTTAAATAAGGCTAGTCCGTTATCAACTTGAAAAAGTGGCACCGAGTCGGTGCT	0.003203
cr753 (nucleic acid, listed as DNA, chemistry not fully specified) guide: GTTTAAGAGCTAAGCTGGAAACAGCATAGCAAGTTTAAATAACGCTAGTCGGTTATCATCTTGAAAAAGAGGAACCGAGTCGGTTCT	0.004302
cr203 (nucleic acid, listed as DNA, chemistry not fully specified) guide: GTTTAAGAGCTAAGCTGGAAACAGCATAGCAACTTTAAATAAGGCTAGTCCTTTATCAACTTGAAAAAGTGGCACCGAGTCGGTGCT	0.004333
cr271 (nucleic acid, listed as DNA, chemistry not fully specified) guide: GTTTAAGAGCTAAGCTGGAAACAGCATAGCAAGTTTAAATAAGGCTAGTCCGTTATCAACTTGAAAAAGTGGTCCCGAGTCGGGACT	1.03
cr070 (nucleic acid, listed as DNA, chemistry not fully specified) guide: GTTTAACGGCTAAGCTGGAAACAGCATAGCAAGTTTAAATAAGGCTAGTCCGTTATCAACTTGAAAAAGTGGCACCGAGTCGGTGCT	1.03
cr109 (nucleic acid, listed as DNA, chemistry not fully specified) guide: GTTTAAGAGCTAAGCTGGAAACAGCATAGCAAGTTTAAATAAGGCTAGTCCGTTATCAACAAGAAATTGTGGCACCGAGTCGGTGCT	1.031
cr400 (nucleic acid, listed as DNA, chemistry not fully specified) guide: GTTTAAGAGCTAAGCTGGAAACAGCATAGCAAGGTTAAATAAGGATATTCCGTTATCAACTTGAAAAAGTGGCACCGAGTCGGTGCT	0.00451
cr060 (nucleic acid, listed as DNA, chemistry not fully specified) guide: GTGCAAGAGCTAAGCTGGAAACAGCATAGCAAGTTTAAATAAGGCTAGTCCGTTATCAACTTGAAAAAGTGGCACCGAGTCGGTGCT	0.005182
cr981 (nucleic acid, listed as DNA, chemistry not fully specified) guide: GTTTAAGAGCTAAGCTGGAAACAGCATAGCAAGTTTAAATAACGCTAGTCGGTTATCAACTGGAAACAGTGGCACCGAGTCGGTGCT	0.003266
cr660 (nucleic acid, listed as DNA, chemistry not fully specified) guide: GTTTAAGAGCTAAGCTGGAAACAGCATAGCAAGTTTAAATAATGCTAGTCCGTTATCAACTTGAAAAAGTGGCACCGAGTCGGTGCT	0.004102
